The source of these data is patent US20090068173A1 (LABORATOIRES SERONO S A, published 2009).

The test concerns the target T1, CCL3/MIP-1 alpha (UniProt P10147 24-92).
T1 construct: also called MIP-1α; 125I-CCL3/MIP-1 alpha
T1 sequence (looked up): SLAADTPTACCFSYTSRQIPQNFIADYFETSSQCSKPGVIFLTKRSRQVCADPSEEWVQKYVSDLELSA
As to the kind of experiment: SPA competition: ChBP-59-HIS (insect cells) titrated against radiolabeled CCL3/MIP-1 alpha and bead-immobilized CCR5.

Broadly, the EC50 is the concentration needed to bring the measured effect to its halfway point. The low end stands for an effect from little substance, the high end for a need for much substance.

B1: ChBP-59-HIS (recombinant histidine-tagged ChBP-59, mature form) (other)
chain: EDDEDYGDLGGCPFLVAENKTGYPTIVACKQDCNGTTETAPNGTRCFSIGDEGLRRMTANLPYDCPLGQCSNGDCIPKETYEVCYRRNWRDKKNHHHHHH
In turn, B1 yielded a half-maximal effective concentration (EC50) of 0.012 nM.
